From article PMC3495951

Molecular target: EGFP-H2B (UniProt P06899)
Assay: FRET or BRET; FLIM-FRET in living cells at 37°C; EGFP fusion as donor, mCherry fusion as acceptor; two-photon excitation at 890 nm; FRET efficiency = 1 - (tauDA/tauD), tauD from cells with mCherry-C1; control cells and TSA-treated cells

“mCherry-SRSF1 (from UniProt Q07955 1-248) (natural protein)” showed an FRET efficiency (minor population) of 6%.
